Positions count from the first letter of the chain named.

The target in data set [1] is T1, His6-LexA (Escherichia coli) (UniProt P0A7C2).
T1 sequence: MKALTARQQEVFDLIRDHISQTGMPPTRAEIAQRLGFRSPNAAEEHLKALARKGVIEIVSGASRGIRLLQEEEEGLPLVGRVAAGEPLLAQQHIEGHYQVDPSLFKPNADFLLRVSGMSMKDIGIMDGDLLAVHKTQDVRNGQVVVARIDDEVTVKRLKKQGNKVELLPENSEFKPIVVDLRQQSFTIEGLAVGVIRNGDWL
Put plainly: EMSA. Conditions: 10 mM HEPES pH 8, 10 mM Tris-HCl pH 8, 50 mM KCl, 1 mM EDTA; on ice 20 min; 40 ng DNA, 0-600 ng LexA in 10 uL; 6% native Tris-glycine PAGE, SYBR Green. For orientation: A gel shift assay detects complexes by their altered migration in electrophoresis.

For another data set, the target named is His6-LexA (Escherichia coli, UniProt P0A7C2 1-202). Put plainly: EMSA; 10 mM HEPES pH 8, 10 mM Tris-HCl pH 8, 50 mM KCl, 1 mM EDTA; on ice 20 min; 40 ng DNA, 0-600 ng LexA in 10 uL; 6% native Tris-glycine PAGE, SYBR Green. The settings on record: protein: recombinant; tags: N-terminal His6; blunt.

Regarding “CAACCGGTAGTGGCTGATAACAACTCGTGAGGGCTATTGCGGGTTAAGCATTTAGCGATGTCTAGGGCCAGACTGGACGTCTGAACGCAAGCCGCTGATACTGTACATAACCACAGTATCAGCGGAGGATACCCATGTCGCTGGCAAGGAACGCCACGGCGAGTCAATCGCCCACTCAAACAAACGGTTACGAACGCCACCAACCCGACCAGACGCTG (double strand) [Prcr1]”, the binding result in data set [1] is given as “binds”. Same read-out and setting: as for “CCGGAATTCGGGAGTGACGGGCACTGGCTGGCAATGTCTAGCAACGGCAGGCATTTCGGCTGAGGGTAAAAGAACTTTCCGCTAAGCGATAGACTGTATGTAAACACAGTATTGCAAGGACGCGGAACATGCCTCATGTGGCGGCCAGGACGGCCAGCCGGGATCGGGATACTGGTCGTTACCAGAGCCACCGACCCGAGCAAACCCTT (double strand) [Prcr2]”, the entry is “binds”.

B1: Prcr8 (dsDNA)
DNA 1: GGCGACGGTTCGGGCCTTGTGCTTTGCGTACCCAAACAATCGCCGCAGAATACTGTGCATTTGTACAGCATTCATGTCAGCCACTTCCAAGCCCAAGCTCTACAACCCACGCCACCCCGA
DNA 2: TCGGGGTGGCGTGGGTTGTAGAGCTTGGGCTTGGAAGTGGCTGACATGAATGCTGTACAAATGCACAGTATTCTGCGGCGATTGTTTGGGTACGCAAAGCACAAGGCCCGAACCGTCGCC
For the molecule B1, the binding result in the data set with His6-LexA is “binds”.

B2: Prcr8 L (dsDNA)
DNA 1: B1 DNA 1 with C66A, A67C, G68T
DNA 2: B1 DNA 2 with C53A, T54G, G55T
modifications: LexA box mutated (terminal ACAG to AACT)
Turning to B2, the binding result in the data set with His6-LexA is on record as “no binding”.

For the origin of these results see PMC13393415, “The bacterial SOS response promotes the expression of the transposase encoded by ISCR mobile genetic elements”.
